Data from patent publication US9731011B2, “Combination tumor treatment with drug-loaded, bispecific ligand-targeted minicells and interferon-gamma” (EnGeneIC Molecular Delivery Pty Ltd, priority 2013, dated 2017).

What was measured:
Type in all cases: in vivo, athymic nude mice
[1] = system: human alveolar adenocarcinoma tumor xenografts (A549); assay: Human alveolar adenocarcinoma (A549) xenograft, tumors ~285 mm^3 (Example 2); conditions: start ~285 mm^3; i.v.; 1×10^9 minicells per dose; IFN-gamma 0.5×10^4 IU per dose; by day 43, six doses
Source text: As described above, minicells were produced from an S. typhimurium minCDE-mutant strain and were purified using a gradient centrifugation/filamentation/filtration/endotoxin removal procedure previously described in MacDiarmid et al. (2007). The purified minicells were packaged with chemotherapeutic drug doxorubicin, also per MacDiarmid et al. (2007).
The bispecific antibody (BsAb) was a single polypeptide containing binding specificity respectively for S. typhimurium O-polysaccharide, present on minicells, and for human EGFR, overexpressed on alveolar adenocarcinoma cells. The O-polysaccharide specificity was derived from a mouse monoclonal antibody, for which the variable regions were isolated from a hybridoma cell line and presented as a single-chain variable fragment (scFv). The hybridoma cell line was prepared by immunizing mice with purified LPS and fusing the lymphocytes with tumor cells. Subsequently, the clones were screened for an antibody capable of binding the O-polysaccharide. The EGFR specificity, also presented as an scFv, was derived from the commercial antibody Erbitux® (Bristol Myers Squibb, USA). […]
The resulting tumors were measured twice a week, using an electronic digital caliper (Mitutoyo, Japan, with a measure accuracy of +/−0.001 inch), and mean tumor volume was calculated using the formula length (mm)×width (mm^2)×0.5=volume (mm^3). […]

[2] = system: human breast tumor xenografts (MDA-MB-468); assay: Human breast cancer (MDA-MB-468) xenograft, moderate tumors ~145 mm^3 (Example 3); conditions: start ~145 mm^3; i.v.; 1×10^9 minicells per dose; IFN-gamma 0.5×10^4 IU per dose; by day 30, six doses
Experimental: As described above, minicells were purified, packaged with doxorubicin, and targeted using single chain bispecific antibody with anti-O-polysaccharide and anti-EGFR specificities. Additionally, human breast cancer cells (MDA-MB-468; ATCC) were established as xenografts in nu/nu mice, and tumor volumes were measured, also as described.
The treatments commenced when the tumors reached a mean of ˜145 mm^3, and mice were randomized to four different groups of seven mice per group. All treatments were administered i.v. in a total volume of 100 μl. All minicell doses contained 1×10^9 minicells of the respective type.
The experiment was designed as follows: Group 1 (control) received sterile physiological saline only. Group 2 (control) received IFN-gamma (0.5×10^4 IU) per dose.

[3] = system: human breast tumor xenografts (MDA-MB-468); assay: Human breast cancer (MDA-MB-468) xenograft, large tumors ~250 mm^3 (Example 4); conditions: start ~250 mm^3; i.v.; 1×10^9 minicells per dose; IFN-gamma 0.5×10^4 IU per dose; by day 28, 3 doses
Experimental: As described above, minicells were purified, packaged with doxorubicin and targeted using single chain bispecific antibody with anti-O-polysaccharide and anti-EGFR specificities. Human breast cancer cells (MDA-MB-468) were established as xenografts in nu/nu mice, and tumor volumes were measured, also as described above.
The treatments were begun when the tumors reached a mean of ˜250 mm^3. As above, mice were randomized to four different groups of seven mice per group. The i.v. administration and minicell doses were as above, too.
The experiment was designed as follows. Group 1 (control) received sterile physiological saline only. Group 2 (control) received IFN-gamma (0.5×10^4 IU) per dose.

Measured: anti-tumor effect (tumor volume)

B1: IFN-gamma: interferon-gamma protein; given i.v. to mice, or endogenous serum level in dogs (protein, UniProt P01580 23-155, looked up)
Interferon gamma: HGTVIESLESLNNYFNSSGIDVEEKSLFLDIWRNWQKDGDMKILQSQIISFYLRLFEVLKDNQAISNNISVIESHLITTFFSNSKAKKDAFMSIAKFEVNNPQVQRQAFNELIRVVHQLLPESSLRKRKRSRC
no anti-tumor efficacy: [1] | [2] | [3]
